From patent US5618675A, “Methods and compositions for detecting lipopolysaccharides using CAP18 fragments” (Panorama Research, Inc., dated 1997)

Legend:
[1] = Anti-coagulant activity of human RNIP (preliminary studies); format: biochemical
[2] = system: rough mutant strain of Proteus mirabilis; conditions: cited from earlier work
encapsulated E. coli = conditions: cited from earlier work
[3] = system: wild-type smooth Proteus mirabilis; conditions: cited from earlier work
human mononuclear cells = assay: LPS-induced tissue factor by human mononuclear cells; format: cell-based; conditions: for Δ Units (%): LPS alone 100
Experimental: Human mononuclear cells were separated from citrated peripheral blood by centrifugation over Sodium-metrizoate-Ficoll (lymphocyte Separation Medium, Japan Antibody Institute, Gumma). The resulting mixed mononuclear cell suspension was washed 3 times with RPMI 1640 media. Cell suspension (1×10^6 /ml) was stimulated with LPS for 16 to 18 hr.
Veronal buffered saline (VBS) was added to the cell pellet, lysed by 3 cycles of freeze/thaw and sonicated for 10 sec with a hand-held sonicator microbe (Handy Sonic, model UR-20P, Tomy Seiko LTD, Tokyo). Tissue factor activity was tested in modified unactivated partial thromboplastin time (7). One tenth ml of cell lysate (1×10^6 /ml) was preincubated with mouse plasma at 37° C. for 3 min. Then 0.1 ml of 25 mM-CaCl2 which contains phospholipid was added to the mixture and clotting time was measured using a fibrometer (Bio Quest Division, Becton Dickinson, Cokeysville, USA). A standard curve obtained from serial two-fold dilutions of rabbit brain thromboplastic (Simplastin, Ono Pharmaceutical Co.) was used to transpose tissue factor activity into arbitrary tissue factor units (1 μg/ml) suspension of rabbit brain was assigned a value of 1,000 units).
The mean tissue factor units+standard error was determined from three to four samples. Student's t test for unpair data was used to determine the statistically significant differences. A two-tailed P value of <0.05 was considered significant.
S. minnesota SmoothLPS (2 μg/ml) was preincubated with equal volume of
each LPSbinding protein (28HA) at 37° C. for 45 minutes, and the
mixture was added to the cells and cultured for 16 hours.

[4] = system: galactosamine-sensitized mice; format: in vivo; conditions: CAP18 40 μg IP alone, no galactosamine, no Re-LPS
Text: Galactosamine sensitizes mice to the lethal effects of LPS by a factor 1000 or more. CAP18 and LPS were mixed and injected IP into sensitized mice. CAP18 can neutralize the lethal effects of LPS in this model of endotoxemia (see Table 8).

[5] = first experiment, LPS 0.1 μg/ml
[6] = second experiment, LPS 0.1 μg/ml

Q: With “human RNIP: human RNIP polypeptide comprising amino acids 134 to 170 of SEQ ID NO:2, Merrifield solid phase synthesis (LLGDFFRKSKEKIGKEFKRIVQRIKDFLRNLVPRTES)” as the molecule, how does the “anti-coagulant activity” value [1] read?
A: lacks significant anti-coagulant activity

B1: BPI55: holoprotein of bactericidal permeability increasing protein (BPI) (protein, UniProt P17213 32-487, looked up)
Bactericidal …: VNPGVVVRISQKGLDYASQQGTAALQKELKRIKIPDYSDSFKIKHLGKGHYSFYSMDIREFQLPSSQISMVPNVGLKFSISNANIKISGKWKAQKRFLKMSGNFDLSIEGMSISADLKLGSNPTSGKPTITCSSCSSHINSVHVHISKSKVGWLIQLFHKKIESALRNKMNSQVCEKVTNSVSSELQPYFQTLPVMTKIDSVAGINYGLVAPPATTAETLDVQMKGEFYSENHHNPPPFAPPVMEFPAAHDRMVYLGLSDYFFNTAGLVYQEAGVLKMTLRDDMIPKESKFRLTTKFFGTFLPEVAKKFPNMKIQIHVSASTPPHLSVQPTGLTFYPAVDVQAFAVLPNSSLASLFLIGMHTTGSMEVSAESNRLVGELKLDRLLLELKHSNIGPFPVELLQDIMNYIVPILVLPRVNEKLQKGFPLPTPARVQLYNVVLQPHQNFLLFGADVVYK
Q: With B1 as the molecule, how does the “growth inhibition” value [2] read?
A: inhibited the growth

Q: What about the “growth inhibitory activity, reduction over control” value (encapsulated E. coli) of the same molecule?
A: about 100 fold

Q: What about the “growth inhibition” value [3] of the same molecule?
A: only the rBPI23 inhibited growth

B2: CAP18: cationic protein obtained from rabbit granulocytes, calculated molecular weight 16.6 kD, SEQ ID NO:4 (protein)
chain: METHKHGPSLAWWSLLLLLLGLLMPPAIAQDLTYREAVLRAVDAFNQQSSEANLYRLLSMDPQQLEDAKPYTPQPVSFTVKETECPRTTWKLPEQCDFKEDGLVKRCVGTVTRYQAWDSFDIRCNRAQESPEPTGLRKRLRKFRNKIKEKLKKIGQKIQGLLPKLAPRTDY
Q: With B2 as the molecule, how does the “Inhibition (%)” value (human mononuclear cells; [5]) read?
A: 30%

Q: What about the “Tissue Factor, figure in parentheses (relative to unstimulated = 1.0)” value (shortened to “Tissue Factor … (relative to unstimulated = 1.0)”) (human mononuclear cells; first experiment, LPS 0.1 μg/ml, LPS alone 16.6) of the same molecule?
A: 9.9

Q: And the “Δ Units (%)” value (human mononuclear cells; [5])?
A: 70%

Q: What about the “Δ Units” value (human mononuclear cells; first experiment, LPS 0.1 μg/ml, LPS alone 17118) of the same molecule?
A: 12001

Q: What about the “Tissue Factor” value (human mononuclear cells; first experiment, LPS 0.1 μg/ml, LPS alone 18214 ± 4192, RNIP 2 HA units, CAP-18 1 HA unit) of the same molecule?
A: 13097 ± 1946 Units × 10^3 /3.6 × 10^4 cells

Q: What about the “Inhibition (%)” value (human mononuclear cells; [6]) of the same molecule?
A: 35%

Q: And the “Tissue Factor … (relative to unstimulated = 1.0)” value (human mononuclear cells; second experiment, LPS 0.1 μg/ml, LPS alone 14.7)?
A: 9.9

Q: What about the “Δ Units (%)” value (human mononuclear cells; [6]) of the same molecule?
A: 65%

Q: What about the “Δ Units” value (human mononuclear cells; second experiment, LPS 0.1 μg/ml, LPS alone 6726) of the same molecule?
A: 4366

Q: What about the “Tissue Factor” value (human mononuclear cells; second experiment, LPS 0.1 μg/ml, LPS alone 7218 ± 264, HA units HP-1 4, HP-2 2, RNIP 2, CAP-18 1) of the same molecule?
A: 4858 ± 1963 Units × 10^3 /3.6 × 10^4 cells

Q: And the “Tissue Factor … (relative to unstimulated = 1.0)” value (human mononuclear cells; second experiment, no LPS)?
A: 1.2

Q: And the “Δ Units” value (human mononuclear cells; second experiment, no LPS)?
A: 235

Q: What about the “Tissue Factor” value (human mononuclear cells; second experiment, no LPS, unstimulated 492 ± 75) of the same molecule?
A: 583 ± 178 Units × 10^3 /3.6 × 10^4 cells

Q: What about the “Lethality (%) groups of 10 mice” value [4] of the same molecule?
A: 0%
